These results are taken from patent US6187552A, “Method for identifying inhibitors of JAK2/cytokine receptor binding” (Pharmacia & Upjohn Company, priority 1998, dated 2001).

Experiment [1] deals with βc/JAK2 binding. The experiment can be described thus: Effect of blocking agents, detergents and DTT on the SPA (signal, background). Further details: species or system human. As to the method:
(§1) Triplicate reactions were done for each data point. The buffer used in all the assays was 35 mM sodium phosphate, 150 mM NaCl, pH 8.0, 10% glycerol. Biotinylated peptides were allowed to bind to streptavidin-coated SPA beads (Amersham Life Sciences, Arlington Heights, Ill., catalog # RPNQ0006) with either less than saturating peptide or excess peptide. […] Under less than saturating conditions, beads and 40 pmole peptide were added to the assay plate well and incubated for one hour with gentle shaking on a Titer plate shaker (Lab-Line Instruments, Inc., Melrose Park, Ill.) at 600 rpm and not washed. […] The plates were then read on a MicroBeta (Wallac) set to read scintillation due to tritium.

The target of experiment [2] is NJAK2 (N-terminal portion of JAK2) (Homo sapiens, UniProt O60674). The experiment can be described thus: SPA: binding of 3H-NJAK2 (N-terminal JAK2) to βc peptides on streptavidin-coated beads. The following applies: less than saturating peptide, 40 pmole per reaction, FIG. 12B. As to the method:
(§2) Three different labeling reactions were done using ^3 H-N-succinimidyl propionate (^3 H-NSP, Amersham Life Sciences, Arlington Heights, Ill.). One reaction was done using 0.5 mg of purified JAK2 in 0.1 M borate buffer, pH 8.5, with a reaction volume of 150 μl and an incubation time of one hour on ice with dried 1 mCi of ^3 H-NSP (toluene was removed using a stream of nitrogen). […] Another reaction was done using the buffer 0.1 M sodium phosphate, pH 8.0, and a similar volume as before. One milligram of JAK2 in 1.2 ml of phosphate buffer was incubated for three hours on ice. […] A third reaction was done using 2.5 mg of purified JAK2 in 0.1 m sodium phosphate, pH 8.0, and 2.5 ml volume. It was incubated with 5 mCi of dried ^3 H-NSP on ice for 2 hours. […] All three products were separated from unincorporated label using PD-10 columns (Pharmacia Biotech, Uppsala, Sweden) pre-equilibrated with 20 mM Tris, pH 8.0, 0.15 M NaCl.
as §1
(§3) Either ^3 H-JAK2 or ^3 H-NJAK2 was added to the wells and, after incubation, the signals measured. […] A competition reaction was also done by adding 5 to 10-fold excess unlabeled JAK2 in those reactions.

For experiment [3], the target named is T1, JAK2 (Homo sapiens, UniProt O60674). The experiment can be described thus: SPA: binding of 3H-JAK2 to βc peptides on streptavidin-coated beads. The arrangement: NJAK2 = N-terminal 294 residues. Conditions: for activity profile in binding 3H-JAK2 (signal): less than saturating peptide, 40 pmole per reaction, FIG. 12A; for activity of C-terminal deletion peptide in the SPA: excess peptide, κ-casein 1 mg/ml; for overall signals and signal-to-noise ratios, peptide and labeled JAK2 mixed prior to adding beads / activity profile, peptide and labeled JAK2 mixed prior to adding beads: mixed one hour before beads, FIG. 13; for overall signals and signal-to-noise ratios, peptide and labeled JAK2 mixed prior to adding beads: versus peptide bound to bead first; for signal: κ-casein included throughout the assay. As to the method:
Cells were lysed by dounce homogenization (20 strokes) in 1X phosphate buffered saline (PBS), pH 7.5 at 4 C. […] For some experiments, the JAK2 protein (0.15 mg/ml), aliquoted into 7 equivalent tubes, was then subjected to ultracentrifugation in an Airfuge using an A-110 rotor at an average of 164,000×g for a period of 6 hours at ambient temperature. At zero time, and at each subsequent hour thereafter, a tube of JAK2 was removed for analyses (ELISA, SDS polyacrylamide gel electrophoresis, and Western blotting).
as §2, §1, §3

Experiment [4] has as its target T1, JAK2. The experiment can be described thus: ELISA binding of JAK2 to immobilized βc peptides. The following applies: for saturation of JAK2 binding at 0.4 μM peptide (ELISA) / binding of JAK2 (ELISA): FIG. 24; for binding of JAK2 (ELISA): biotinylated peptides on streptavidin plate. The arrangement: Y918N clone error corrected to Tyr. Here is the method:
βc peptides corresponding to the proposed JAK2 binding domain (Table 1) were serially diluted and bound 16 hours at room temperature to streptavidin coated 96-well plates (Boehringer-Mannheim, Indianapolis, Ind.) and blocked at 37° with 1% fetal bovine serum in PBS. JAK2 protein was serially diluted on the plate and allowed to bind for 1 hour at room temperature. Plates were washed between incubations with ELISA wash (PBS with 0.04% TWEEN 20). Detection was via anti-FLAG antibody (10 μg/ml, Kodak, New Haven, Conn.) followed by anti-mouse Ig conjugated to peroxidase (1:5000 dilution, Boehringer Mannheim) and 1 mg/ml 2,2'-azinobis(3-ethylbenzthiazolinesulfonic acid) (Sigma), 0.003% H2 O2, 28 mM citric acid, 44 mM Na2 HPO4.
The ELISA assay worked best when the biotinylated βc peptides were immobilized on a streptavidin 96-well plate and the JAK2 was allowed to bind. A dual titration of βc peptides vs. JAK2 was performed (FIG. 24). Peptide 1 [SEQ ID NO:11] (FIG. 24 A) and peptide 2 [SEQ ID NO:12] […] Because 0.4 μM peptide was calculated to saturate the number of biotin binding sites in each well, it was expected that the amount of JAK2 binding should saturate at this quantity of peptide. […] (FIGS. 24 C and D) but peptides 5 and 6 [SEQ ID NOS:15 and 16]

Experiment [5] concerns the target T1, JAK2. Nature of the experiment: SPA competition: soluble peptide/streptavidin against peptide 4-coated SPA beads for binding 3H-JAK2. Further details: Y918N clone error corrected to Tyr. From the text:
FIGS. 20 A and B illustrate a test of the ability of streptavidin-peptide 4 complexes to compete for binding of 3H-JAK2 to peptide 4-coated SPA beads. For A, #0 is a beads only control. In all reactions with peptide bound to beads, excess peptide 4 [SEQ ID NO:14] was bound to beads before adding soluble samples. The reaction in #1 is peptide 4 [SEQ ID NO:14] bound to beads only, no added peptide 4 [SEQ ID NO:14] or streptavidin. #2 contained soluble peptide 4/streptavidin at a ratio of 1:1. #3 contained soluble peptide 4/streptavidin at a ratio of 4:1. #4 contained 20 μM peptide 4 added as soluble peptide 4. #5 contained 20 μM streptavidin. […] For B, 0 is a beads only control. In all reactions with peptide bound to beads, excess peptide 4 was bound to beads in the presence of 1 mg/ml κ-casein (as described in Materials and Methods of Example 8) before adding soluble samples. The reaction in #1 is peptide 4 bound to beads only, no added peptide 4 or streptavidin. #2 contained peptide 1/streptavidin at a ratio of 4:1 and #3 contained peptide 4/streptavidin at a ratio of 4:1.
The assay was set up in 96-well plates (Wallac, catalog # 1450-401), Turku, Finland, using a total assay volume of 200, μl/well. Triplicate reactions were done for each data point. The buffer used in all the assays was 35 mM sodium phosphate, 150 mM NaCl, pH 8.0, 10% glycerol. Biotinylated peptides were allowed to bind to streptavidin-coated SPA beads (Amersham Life Sciences, Arlington Heights, Ill., catalog # RPNQ0006) with either less than saturating peptide or excess peptide. For 400 μg SPA beads used per reaction, there was the capacity to bind 49 pmole of biotin (given the binding capacity of 121 pmole biotin/mg bead). Under less than saturating conditions, beads and 40 pmole peptide were added to the assay plate well and incubated for one hour with gentle shaking on a Titer plate shaker (Lab-Line Instruments, Inc., Melrose Park, Ill.) at 600 rpm and not washed. Under conditions of excess peptide, beads and peptide (80 pmole of peptide per 400 μg of bead) were mixed in batch with or without 1 mg/ml K-casein added as described in Results and Discussion, incubated for one hour with rotation, washed three times with buffer and aliquotted into wells. ^3 H-JAK2 or ^3 H-NJAK2 and any other components to be tested were added and the reactions were mixed and incubated for one hour in the dark at room temperature. The plates were then read on a MicroBeta (Wallac) set to read scintillation due to tritium.
The ability of excess peptide 4 [SEQ ID NO: 14] to compete for binding of JAK2 was tested. Biotinylated peptide 4 was bound to streptavidin in solution to mimic the conditions of the peptide 4 bound to the beads. It was used at a ratio of 1:1 (peptide 4: streptavidin) and at a ratio of 4:1 to see whether having multiple peptides on one streptavidin molecule might do a better job of binding JAK2 and therefore of competing. […] This could be due to the free streptavidin pulling some of the peptide 4 [SEQ ID NO: 14] off the bead. […] Another SPA was done using peptide 4 [SEQ ID NO:14] or peptide 1 [SEQ ID NO:11] bound to streptavidin at a ratio of 4:1. […] The results are shown in panel B of FIG. 20.

Sequence of NJAK2 (N-terminal portion of JAK2) (O60674 1-294 S277G): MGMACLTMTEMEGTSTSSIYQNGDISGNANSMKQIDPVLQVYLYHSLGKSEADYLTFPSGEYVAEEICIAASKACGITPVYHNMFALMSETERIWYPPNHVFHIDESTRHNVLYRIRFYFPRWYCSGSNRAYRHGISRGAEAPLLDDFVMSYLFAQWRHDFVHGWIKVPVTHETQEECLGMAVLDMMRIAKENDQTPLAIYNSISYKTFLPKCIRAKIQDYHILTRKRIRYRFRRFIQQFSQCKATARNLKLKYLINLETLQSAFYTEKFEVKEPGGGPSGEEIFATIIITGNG
T1 sequence (O60674 3-1132): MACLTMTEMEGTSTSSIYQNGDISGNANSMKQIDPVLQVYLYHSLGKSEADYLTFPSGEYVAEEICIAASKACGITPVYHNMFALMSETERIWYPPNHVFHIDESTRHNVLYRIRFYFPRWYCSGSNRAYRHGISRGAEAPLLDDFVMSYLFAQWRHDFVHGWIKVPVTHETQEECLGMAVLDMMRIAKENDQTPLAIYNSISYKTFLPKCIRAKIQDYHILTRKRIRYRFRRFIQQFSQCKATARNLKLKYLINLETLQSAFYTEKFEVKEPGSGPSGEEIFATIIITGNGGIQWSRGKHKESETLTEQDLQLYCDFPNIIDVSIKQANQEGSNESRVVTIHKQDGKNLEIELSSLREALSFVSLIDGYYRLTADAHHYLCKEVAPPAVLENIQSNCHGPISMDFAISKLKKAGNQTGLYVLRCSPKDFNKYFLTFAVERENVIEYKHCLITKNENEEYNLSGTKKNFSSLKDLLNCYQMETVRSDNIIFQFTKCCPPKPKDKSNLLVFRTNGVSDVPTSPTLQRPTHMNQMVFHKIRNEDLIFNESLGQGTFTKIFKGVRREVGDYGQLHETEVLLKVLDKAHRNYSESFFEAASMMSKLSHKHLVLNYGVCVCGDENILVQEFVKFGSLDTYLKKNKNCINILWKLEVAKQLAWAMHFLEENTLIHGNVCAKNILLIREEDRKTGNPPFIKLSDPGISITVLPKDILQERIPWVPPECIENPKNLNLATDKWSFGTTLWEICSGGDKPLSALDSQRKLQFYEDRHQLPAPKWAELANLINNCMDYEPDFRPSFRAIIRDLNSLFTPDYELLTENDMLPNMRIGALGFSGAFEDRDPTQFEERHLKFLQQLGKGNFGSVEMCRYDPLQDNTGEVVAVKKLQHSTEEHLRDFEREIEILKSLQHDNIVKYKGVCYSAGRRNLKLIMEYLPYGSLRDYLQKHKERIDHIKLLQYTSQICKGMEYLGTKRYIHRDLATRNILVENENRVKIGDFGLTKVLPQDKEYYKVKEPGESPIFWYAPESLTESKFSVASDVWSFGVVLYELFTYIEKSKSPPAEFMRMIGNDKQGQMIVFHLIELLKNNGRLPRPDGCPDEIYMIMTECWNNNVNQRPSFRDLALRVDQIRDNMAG

Turning to `O[C@H](CS)[C@H](O)CS` (racemic) [dithiothreitol], in experiment [1] (0.1 or 1 mM DTT with Brij 35 0.0025%, FIG. 19B), the “additional effect of dithiothreitol” value is given as “no obvious additional effect”.
Consider “YRLRRKWEEKIPNPSKSHLFQNGSAELWP [peptide 3, βc peptide, N-terminal truncation]”, for which, in experiment [2], the “activity profile in binding 3H-NJAK2 (signal)” value is “peptide 4>peptide 3>peptide 5>peptide 6>peptides 1 and 2”. In experiment [3], the “suitability in the SPA” value is “two most optimal”; the “activity profile in binding 3H-JAK2 (signal)” value was “peptide 4>peptide 3>peptide 5>peptide 6>peptides 1 and 2”. The “suitability for the ELISA” value in experiment [4] is reported as “appear optimal”.
“FCGIYGYRLRRKWEEKIPNPSKSHLFQNGSAELWP [peptide 5, βc peptide, N-terminal truncation]”: the “activity profile in binding 3H-NJAK2 (signal)” value in experiment [2] is “peptide 4>peptide 3>peptide 5>peptide 6>peptides 1 and 2”. Also, the “activity profile in binding 3H-JAK2 (signal)” value in experiment [3] is “peptide 4>peptide 3>peptide 5>peptide 6>peptides 1 and 2”. Also, in experiment [4], the “saturation of JAK2 binding at 0.4 μM peptide (ELISA)” value is reported as “did not show saturation”.
On to bovine serum albumin [BSA], for which, in experiment [1] (BSA 0.1 or 0.5 mg/ml, FIG. 16), the effect on background entry is listed as “no effect” and the effect on signal entry is reported as “slight positive effect”.
For “GIYGYRLRRKWEE [CTD-5, C-terminal deletion of peptide 4]”, the “activity of C-terminal deletion peptide in the SPA” value in experiment [3] (10 nM labeled JAK2, FIG. 21B) was “as active as peptide 4”.
As for streptavidin [reference compound], in experiment [5] (20 μM streptavidin, FIG. 20A), the “signal with streptavidin alone” value is “decreases the signal to a greater extent than streptavidin with peptide 4”.
In the case of “LALRFCGIYGYRLRRKWEEKIPNPSKSHLFQNGSAELWP [peptide 6, βc peptide]”, the “activity profile in binding 3H-NJAK2 (signal)” value in experiment [2] was “peptide 4>peptide 3>peptide 5>peptide 6>peptides 1 and 2”. In addition, in experiment [3], the “activity profile in binding 3H-JAK2 (signal)” value is “peptide 4>peptide 3>peptide 5>peptide 6>peptides 1 and 2”; the “overall signals and signal-to-noise ratios, peptide and labeled JAK2 mixed prior to adding beads” value is “lower overall signals and signal-to-noise ratios”; the “activity profile, peptide and labeled JAK2 mixed prior to adding beads” value is “same activity profile”; the signal entry is “very little signal”. In addition, in experiment [4], the “saturation of JAK2 binding at 0.4 μM peptide (ELISA)” value is given as “did not show saturation”.
Turning to “EKIPNPSKSHLFQNGSAELWP [peptide 1, βc peptide, N-terminal truncation]”, the “activity profile in binding 3H-NJAK2 (signal)” value in experiment [2] is recorded as “gave no signal”. Also, in experiment [3], the “activity profile in binding 3H-JAK2 (signal)” value is “gave no signal”; the “overall signals and signal-to-noise ratios, peptide and labeled JAK2 mixed prior to adding beads” value was “lower overall signals and signal-to-noise ratios”; the “activity profile, peptide and labeled JAK2 mixed prior to adding beads” value is “same activity profile”; the signal entry was “very little signal”. In addition, the “binding of JAK2 (ELISA)” value in experiment [4] was “no binding activity”. In experiment [5] (peptide/streptavidin 4:1, beads with 1 mg/ml κ-casein, FIG. 20B), the “competition for binding of JAK2” value is on record as “decrease in signal”.
Regarding κ-casein, in experiment [1] (κ-casein during binding of excess peptide to beads, washed away, FIG. 15), the “effect on signal and background” value is “decreases both signal and background”.
Turning to “RKWEEKIPNPSKSHLFQNGSAELWP [peptide 2, βc peptide, N-terminal truncation]”, the “activity profile in binding 3H-NJAK2 (signal)” value in experiment [2] was “gave no signal”. The “activity profile in binding 3H-JAK2 (signal)” value in experiment [3] was “gave no signal”. Moreover, the “binding of JAK2 (ELISA)” value in experiment [4] is “no binding activity”.
Turning to “GIYGYRLRRKWEEKIPN [CTD-4, C-terminal deletion of peptide 4]”, the “activity of C-terminal deletion peptide in the SPA” value in experiment [3] (32.5 nM labeled JAK2, FIG. 21A) is reported as “slight decrease in the activity”.
